The target of the assay is monoclonal antibody against the N-terminal FERM domain of moesin. Kind of assay: cell-based or functional assay.

Take “N-terminal FERM domain of human moesin protein (from UniProt P26038 1-297)”: the CD62P FD (Mnx), platelet activation induced by anti-moesin N-terminal domain antibody, inhibitor N-terminal FERM domain was 5.79 FD (Mnx); the CD63 FD (Mnx), platelet activation induced by anti-moesin N-terminal domain antibody, inhibitor N-terminal FERM domain is 6.3 FD (Mnx); the PAIR, platelet aggregation induced by anti-moesin N-terminal domain antibody (2 µg/mL), inhibitor N-terminal domain (0.2 mM) came to 90.2%; the PAR (%), platelet aggregation induced by anti-moesin N-terminal domain antibody (2 µg/mL), inhibitor N-terminal domain (0.2 mM) stood at 6.03%.

Values taken from patent US20130323264A1.
